Experimental data published in patent US8080531B2, “Methods for modulating checkpoint activation through TopBP1” (California Institute of Technology, priority 2006, dated 2011).

How the values were obtained:
Xatr-Xatrip [1] = target: Xatr-Xatrip (Xenopus laevis, UniProt Q9DE14); test: Kinase assay of Xatr-Xatrip complexes isolated from Xenopus egg extracts; assay type: biochemical; set-up: increase of kinase activity of Xatr; other: Xatr immunoprecipitated from Xatrip-depleted extracts
Excerpt: (§1) Specifically, Applicants first isolated Xatr from egg extracts by pull-downs with FLAG-tagged Xenopus ATRIP (Xatrip). For these experiments, Applicants used both full-length Xatrip and an N-terminal truncation mutant (ΔN222) that supports normal Xatr-dependent activation of Xchk1 in egg extracts (Kumagai et al., 2004; Kim et al., 2005).
(§2) Applicants eluted the beads with FLAG peptide and mixed the eluates with a His6-tagged version of XtopBP1 that had been purified from baculovirus-infected insect cells (FIG. 1B). Finally, Applicants added ^32P-ATP and PHAS-I, a commonly used model substrate for ATR (Abraham, 2001).
Xatrip-FLAG and XatripΔN222-FLAG (20 ng/μl each) were incubated in interphase extracts containing anti-FLAG M2 antibody beads (Sigma) for 60 min at room temperature. The beads were isolated and washed twice with buffer A (10 mM HEPES-KOH (pH 7.5), 150 mM NaCl, 0.1% CHAPS, and 2.5 mM EGTA) and twice with HEPES-buffered saline (HBS; 10 mM HEPES-KOH (pH 7.5) and 150 mM NaCl). Xatr-Xatrip complexes were eluted in one-tenth the volume of the egg extract in HBS containing 0.1 mg/ml 3×-FLAG peptide (Sigma) for 60 min at 4° C. Eluates (2 μl) were used for kinase assays as described below. […]

Xatr-Xatrip [2] = test: as above; assay type: biochemical; settings: for activation of Xatr kinase activity toward PHAS-I: isolated Xatr-Xatrip complexes, 32P-ATP, result in words
Excerpt: as §1, §2
Xatrip-FLAG and XatripΔN222-FLAG (20 ng/μl each) were incubated in interphase extracts containing anti-FLAG M2 antibody beads (Sigma) for 60 min at room temperature. The beads were isolated and washed twice with buffer A (10 mM HEPES-KOH (pH 7.5), 150 mM NaCl, 0.1% CHAPS, and 2.5 mM EGTA) and twice with HEPES-buffered saline (HBS; 10 mM HEPES-KOH (pH 7.5) and 150 mM NaCl). Xatr-Xatrip complexes were eluted in one-tenth the volume of the egg extract in HBS containing 0.1 mg/ml 3×-FLAG peptide (Sigma) for 60 min at 4° C. Eluates (2 μl) were used for kinase assays as described below.
(§3) Samples were incubated in 20 μl kinase buffer (50 mM Tris-HCl (pH 7.5), 10 mM MgCl2, 1 mM dithiothreitol, 100 μM nonradioactive ATP, and 100 μCi/ml [γ-^32P]ATP) containing 12.5 μg/ml PHAS-I or 50 μg/ml GST-Xmcm2 (62-122) for 30 min at room temperature. GST-XtopBP1 (972-1279) was added at a final concentration of 100 μg/ml unless indicated otherwise. In some cases, GST-Xmcm2 (62-122), GST-Xchk1 (306-352), or full-length Xchk1-Myc-His6 were used as substrates with only […] nonradioactive ATP. Reactions were terminated by boiling in gel sample buffer.

Xchk1 [3] = test: Checkpoint-dependent phosphorylation of Xchk1 in XtopBP1-depleted egg extracts with aphidicolin and sperm nuclei; assay type: biochemical, Xenopus; settings: added back to XtopBP1-depleted extract, aphidicolin
Excerpt: Applicants proceeded to remove endogenous XtopBP1 from egg extracts by immunodepletion with anti-XtopBP1 antibodies (FIG. 7C). In parallel, Applicants used control antibodies to prepare mock-depleted extract. Next, Applicants added back wild-type His6-XtopBP1 or the His6-XtopBP1-W1138R mutant to aliquots of the XtopBP1-depleted extract. Finally, Applicants added aphidicolin and demembranated Xenopus sperm nuclei to the various extracts in order to create stalled replication forks and then examined phosphorylation of Xchk1 (FIG. 7D).
(§4) Extracts from Xenopus eggs were prepared as described (Kumagai and Dunphy, 2000). A DNA replication checkpoint response was induced by addition of 50 μg/ml aphidicolin into extracts containing demembranated sperm nuclei (3000 per μl) (Kumagai and Dunphy, 2000). To monitor DNA replication, extracts containing 1000 sperm nuclei/μl were incubated with [α-^32P]dATP (Yoo et al., 2004).
Xatr and Xatrip were immunodepleted as described (Kumagai et al., 2004). For immunodepletion of XtopBP1, we incubated 100 μl egg extract twice for 60 min with 10 μl Affiprep protein A beads (BioRad) containing 35 μg anti-XtopBP1 antibodies.

human Mcm2 on S108 = test: Phosphorylation of Mcm2 on S108 in transfected human 293T cells; assay type: cell-based; settings: immunoblotting
Excerpt: To pursue this issue further, Applicants asked whether the ATR-activating domain of TopBP1 could induce ATR-dependent phosphorylation in human cells. For this purpose, Applicants constructed a version of the enhanced green fluorescent protein (EGFP) containing the SV40 nuclear localization sequence and residues 978-1286 of human TopBP1 (equivalent to residues 972-1279 of XtopBP1). Applicants also produced the W1145R mutant of this plasmid (analogous to the W1138R mutant of XtopBP1). Applicants transfected plasmids encoding these proteins into human 293T cells and performed immunoblotting with anti-phosphopeptide antibodies that detect phosphorylation of human Mcm2 on S108 (which corresponds to S92 of Xmcm2) (Cortez et al., 2004; Yoo et al., 2004).
pEGFP-NLS-TopBP1 (978-1286), which encodes EGFP followed by a nuclear localization sequence (KKKRKV, SEQ ID NO: 11) and amino acids 978-1286 of human TopBP1, was prepared from pEGFP (Clontech) by standard polymerase chain reaction-based methods. Plasmids were transfected into 293T cells with Lipofectamine 2000 (Invitrogen).

Xatr-Xatrip [4] = test: Glutathione bead pull-down of Xatr and Xatrip from egg extracts; assay type: binding, Xenopus; settings: egg extracts, immunoblotting
Description: Specifically, Applicants incubated glutathione beads containing GST-XtopBP1 (972-1279) in egg extracts, reisolated the beads, and performed immunoblotting for both Xatr and Xatrip. […] In addition, in other experiments, there was no binding of Xatr or Xatrip to beads containing GST fusions of the 1-348, 333-646, or 623-984 segments from XtopBP1 (data not shown).
Applicants also tested to see if the association of XtopBP1 with Xatr depends upon Xatrip. For this experiment, Applicants removed endogenous Xatrip from egg extracts by immunodepletion with anti-Xatrip antibodies. As described previously, this procedure leaves behind approximately 30% of the endogenous Xatr, the fraction that is not in a complex with Xatrip (Kumagai et al., 2004). Next, Applicants added GST-XtopBP1 (972-1279) to the Xatrip-depleted extracts and to mock-depleted extracts that had been prepared in parallel.

human ATR [5] = test: Kinase assay of recombinant human FLAG-ATR against S92 of GST-Xmcm2 (62-122); assay type: biochemical; settings: kinase-deficient human FLAG-ATR
Description: (§5) Specifically, Applicants isolated wild-type and kinase-deficient versions of FLAG-tagged human ATR from nuclear extracts of U2OS cells that conditionally express these proteins (FIG. 5C). The recombinant ATR proteins were purified with anti-FLAG magnetic beads under conditions that preserve the binding of endogenous ATRIP (Ünsal-Kacmaz and Sancar, 2004). Next, Applicants incubated both the wild-type and kinase-deficient FLAG-ATR preparations in the absence or presence of GST-XtopBP1 (972-1279), and measured kinase activity against S92 of the GST-Xmcm2 (62-122) peptide.
as §3
(§6) U2OS cells conditionally expressing wild-type (GW33) or kinase-deficient (GK41) human FLAG-ATR were cultured as described (Nghiem et al., 2001). Cells were induced with 1 μg/ml doxycycline for 48 hr. Nuclear extracts were prepared as described (Dignam et al., 1983) except that nuclei were lysed by brief sonication and the concentration of NaCl in the nuclear isolation buffer was reduced to 350 mM in order to preserve the binding of endogenous ATRIP to recombinant ATR. FLAG-ATR proteins were isolated by an overnight incubation with anti-FLAG antibodies bound to protein G-magnetic beads (Dynal) and eluted with 3×-FLAG peptide.

human ATR [6] = target: T1, human ATR (Homo sapiens, UniProt Q13535); test: as above; assay type: biochemical; settings: wild-type human FLAG-ATR from U2OS nuclear extracts
T1 construct: expressed in transfected cells; host or cells: U2OS GW33 cells (doxycycline-inducible), nuclear extract, anti-FLAG purification
Description: as §5, §3, §6

Xchk1 [7] = test: Ectopic phosphorylation of 35S-Xchk1 in Xenopus egg extracts without checkpoint-inducing DNA; assay type: biochemical; settings: 35S-Xchk1, tautomycin, no checkpoint-inducing DNA template
Description: Because the GST-XtopBP1 (972-1279) fragment could activate Xatr in vitro without the inclusion of DNA, Applicants reasoned that ectopic addition of this fragment to Xenopus egg extracts might also be able to trigger the Xatr-dependent phosphorylation of Xchk1 even in the absence of a checkpoint-inducing DNA template.
as §4

Sequence of Xatr-Xatrip (Q9DE14 whole entry, the tested form may be a part): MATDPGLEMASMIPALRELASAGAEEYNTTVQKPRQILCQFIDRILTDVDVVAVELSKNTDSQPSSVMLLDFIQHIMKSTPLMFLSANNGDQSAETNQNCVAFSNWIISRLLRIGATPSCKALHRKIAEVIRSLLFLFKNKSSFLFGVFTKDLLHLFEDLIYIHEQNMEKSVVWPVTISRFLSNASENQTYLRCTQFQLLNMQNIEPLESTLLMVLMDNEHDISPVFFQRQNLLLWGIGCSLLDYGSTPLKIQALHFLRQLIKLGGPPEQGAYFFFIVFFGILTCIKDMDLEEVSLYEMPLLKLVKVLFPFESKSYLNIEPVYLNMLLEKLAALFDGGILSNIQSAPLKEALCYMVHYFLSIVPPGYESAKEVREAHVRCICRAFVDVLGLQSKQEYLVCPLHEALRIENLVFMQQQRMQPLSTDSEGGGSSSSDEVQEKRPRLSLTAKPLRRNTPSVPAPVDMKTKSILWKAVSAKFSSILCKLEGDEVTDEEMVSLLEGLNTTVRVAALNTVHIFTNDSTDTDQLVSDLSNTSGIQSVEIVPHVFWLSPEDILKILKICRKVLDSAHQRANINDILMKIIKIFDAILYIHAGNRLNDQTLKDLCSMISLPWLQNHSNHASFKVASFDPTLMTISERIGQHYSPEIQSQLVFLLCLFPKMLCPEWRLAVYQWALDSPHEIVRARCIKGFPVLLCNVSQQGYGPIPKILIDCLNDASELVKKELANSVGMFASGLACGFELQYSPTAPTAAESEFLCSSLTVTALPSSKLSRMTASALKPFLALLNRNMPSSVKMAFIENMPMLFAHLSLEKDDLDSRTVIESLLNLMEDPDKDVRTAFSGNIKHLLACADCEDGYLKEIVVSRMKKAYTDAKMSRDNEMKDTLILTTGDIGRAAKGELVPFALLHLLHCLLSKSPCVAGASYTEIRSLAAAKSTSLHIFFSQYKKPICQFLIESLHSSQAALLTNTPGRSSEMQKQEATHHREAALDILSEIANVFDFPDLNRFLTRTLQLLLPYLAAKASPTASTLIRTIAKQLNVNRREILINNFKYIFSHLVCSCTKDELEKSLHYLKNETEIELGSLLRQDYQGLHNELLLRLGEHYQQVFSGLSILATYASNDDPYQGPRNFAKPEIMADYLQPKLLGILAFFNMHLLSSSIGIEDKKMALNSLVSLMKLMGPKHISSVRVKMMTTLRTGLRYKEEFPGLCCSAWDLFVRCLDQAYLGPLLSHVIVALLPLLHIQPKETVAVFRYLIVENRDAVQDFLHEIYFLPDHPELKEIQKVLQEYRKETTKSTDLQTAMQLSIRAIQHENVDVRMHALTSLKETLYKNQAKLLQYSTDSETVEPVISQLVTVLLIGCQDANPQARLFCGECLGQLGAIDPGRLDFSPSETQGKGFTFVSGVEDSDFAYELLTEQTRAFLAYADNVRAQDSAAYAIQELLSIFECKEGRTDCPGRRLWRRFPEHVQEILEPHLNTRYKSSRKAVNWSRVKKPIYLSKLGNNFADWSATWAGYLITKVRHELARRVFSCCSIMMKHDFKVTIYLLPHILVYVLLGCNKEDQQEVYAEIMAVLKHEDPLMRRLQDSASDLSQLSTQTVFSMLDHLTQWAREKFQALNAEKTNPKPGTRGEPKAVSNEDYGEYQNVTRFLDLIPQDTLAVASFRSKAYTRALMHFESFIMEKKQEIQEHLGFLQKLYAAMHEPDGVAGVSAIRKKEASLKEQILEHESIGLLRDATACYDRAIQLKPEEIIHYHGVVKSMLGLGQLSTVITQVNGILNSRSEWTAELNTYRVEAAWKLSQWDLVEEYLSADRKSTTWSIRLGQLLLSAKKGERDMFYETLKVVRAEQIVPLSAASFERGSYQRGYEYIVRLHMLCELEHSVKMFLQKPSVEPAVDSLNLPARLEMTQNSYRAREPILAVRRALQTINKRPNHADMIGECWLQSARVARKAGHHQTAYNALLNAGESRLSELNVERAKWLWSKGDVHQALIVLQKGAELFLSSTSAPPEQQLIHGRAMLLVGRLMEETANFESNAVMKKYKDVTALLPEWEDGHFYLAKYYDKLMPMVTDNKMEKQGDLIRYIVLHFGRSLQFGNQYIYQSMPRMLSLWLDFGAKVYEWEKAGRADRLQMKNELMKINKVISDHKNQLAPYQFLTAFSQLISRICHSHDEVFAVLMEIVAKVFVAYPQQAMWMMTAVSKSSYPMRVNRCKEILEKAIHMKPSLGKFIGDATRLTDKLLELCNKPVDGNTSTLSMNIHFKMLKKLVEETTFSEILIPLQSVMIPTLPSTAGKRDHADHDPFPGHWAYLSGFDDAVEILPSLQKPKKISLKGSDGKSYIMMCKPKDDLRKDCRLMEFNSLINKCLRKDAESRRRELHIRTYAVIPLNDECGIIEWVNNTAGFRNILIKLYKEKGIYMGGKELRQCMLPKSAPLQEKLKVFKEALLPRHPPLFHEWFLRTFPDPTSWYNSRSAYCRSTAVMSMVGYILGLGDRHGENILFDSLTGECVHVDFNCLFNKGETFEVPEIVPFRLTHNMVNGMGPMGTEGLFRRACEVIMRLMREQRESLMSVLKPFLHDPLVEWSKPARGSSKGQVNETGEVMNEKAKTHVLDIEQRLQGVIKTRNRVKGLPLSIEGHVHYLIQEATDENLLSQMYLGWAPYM
Sequence of Xatr-Xatrip (Xenopus laevis, UniProt Q9DE14) (Q9DE14 whole entry, the tested form may be a part): as above

Q: Which IC50 (Xatr-Xatrip [1]; Xatr-XatripΔN222 activated by His6-XtopBP1, PHAS-I substrate, 0.04-5 mM caffeine, read-out: half-maximal inhibition of the XtopBP1-activated form of Xatr) does the source give for `Cn1c(=O)c2c(ncn2C)n(C)c1=O` [caffeine, reference compound] here?
A: ~400 µM

Q: “XtopBP1: His6-tagged full-length Xenopus TopBP1 purified from baculovirus-infected insect cells” was tested. Which “increase of kinase activity of Xatr” value (Xatr-Xatrip [1]; Xatr immunoprecipitated from Xatrip-depleted extracts) did it give?
A: could not significantly increase

Q: And the “half-maximal induction of kinase activity” value (Xatr-Xatrip [2]; Xatr-XatripΔN222, PHAS-I substrate, dose-response 0.5-30 μg/ml XtopBP1)?
A: 10 to 15 µg/mL

Q: What about the “induced kinase activity toward PHAS-I” value (Xatr-Xatrip [2]; XatripΔN222-FLAG preparation from Xatr-depleted extracts) of the same molecule?
A: could not elicit any kinase activity

Q: What about the “induced kinase activity toward PHAS-I” value (Xatr-Xatrip [2]; XatripΔN222-FLAG preparation from mock-depleted extracts) of the same molecule?
A: induced strong kinase activity

Q: And the “activation of Xatr kinase activity toward PHAS-I” value (Xatr-Xatrip [2])?
A: very large increase

Q: What about the “kinase activity toward PHAS-I of the preparation alone” value (Xatr-Xatrip [2]; recombinant XtopBP1 without Xatr-Xatrip) of the same molecule?
A: negligible kinase activity

Q: What about the “rescue of phosphorylation of Xchk1” value (Xchk1 [3]) of the same molecule?
A: rescue the phosphorylation of Xchk1 fully

B1: W1145R mutant: W1145R mutant of EGFP-NLS-TopBP1 (978-1286), analogous to the W1138R mutant of XtopBP1 (protein)
chain: KKKRKVAQECKHLPESLYPHTYNPKMSLDISAVQDGRLCNSRLLSAVSSTKDDEPDPLILEENDVDNMATNNKESAPSNGSGKNDSKGVLTQTLEMRENFQKQLQEIMSATSIVKPQGQRTSLSRSGCNSASSTPDSTRSARSGRSRVLEALRQSRQTVPDVNTEPSQNEQIIRDDPTAREERARLASNLQWPSCPTQYSELQVDIQNLEDSPFQKPLHDSEIAKQAVCDPGNIRVTEAPKHPISEELETPIKDSHLIPTPQAPSIAFPLANPPVAPHPREKIITIEETHEELKKQYIFQLSSLNPQERIDYCHL
modifications: left off: large carriers
notes: W1145R mutant of EGFP-NLS-TopBP1 (978-1286), analogous to the W1138R mutant of XtopBP1
Q: Which “phosphorylation of Mcm2 on S108” value (human Mcm2 on S108) does the source give for B1 here?
A: no effect

B2: W1138R mutant of GST-XtopBP1 (972-1279): point mutant of the fragment in which the tryptophan in the WDDP motif was changed to arginine (protein)
chain: EQQKRVPEALYPHTYNPKMSLDISAVQDGSYTASKFSADTSLQQDENSELQLQQNNKFGETSDDQVKKAAGDGNPQNPSKDVKGALTQTLEMRENFQRQLQEFMSATSVVKPRGSVGRAGFDNSPCTPEGARSTRNGRSRVLEALRQSRQAMTDLNTEPSQNEQIIRDDPTAREERAKLVSNLQWPDSPSQYSEQLQHNMNDAGGNYTPAKESLTDSEIAELEACEFEPKSAMRTPVIENNLQSPTKPDHLTPTPQAPSIAFPLANPPVAPQPREKPVQPFSKEETLKERRFQLSSLDPQERIDYSQL
modifications: left off: a dimerising Fc or GST; small tags and cut ends
notes: point mutant of the fragment in which the tryptophan in the WDDP motif was changed to arginine
Q: What does the source list for B2?
A: binding of Xatr and Xatrip to glutathione beads (Xatr-Xatrip [4]): retains significant ability to bind Xatr-Xatrip; activity of kinase-deficient FLAG-ATR (human ATR [5]): neither the intact nor W1138R mutant form of GST-XtopBP1 (972-1279) had any effect; kinase activity of wild-type FLAG-ATR (human ATR [6]): did not induce any activation; phosphorylation of Xchk1 in egg extracts (Xchk1 [7]): none of the ΔRQLQ, ΔWDDP, or W1138R mutants of the 972-1279 fragment could induce ectopic activation; activation of Xatr kinase activity toward PHAS-I (Xatr-Xatrip [2]): totally lost its capacity
